Measured values as given in EP0977036A1, “METHOD FOR ASSAYING AGALACTO-IgG AND ASSAY KITS, PO[…] LECTINS, AND DNAS ENCODING THE SAME” (SEIKAGAKU CORPORATION, priority 1996, dated 1998).

Biological target: agalacto-IgG (human IgG treated with streptococcal beta-galactosidase and sialidase, Preparation Example 1)
Assay: sandwich ELISA of Example 3, agalacto-IgG 2.5 µg/ml, competitor GlcNAc 50 mM (a monosaccharide)

percent inhibition in the presence of 50 mM GlcNAc: 50%
Substance: Psathyrella velutina lectin (PVL), purified from Psathyrella velutina fruiting body
